Data as given in patent US20220119534A1 (DRAGONFLY THERAPEUTICS, published 2022).

T1: Human CD32a R131 (FcγRIIa R131) (human, UniProt P12318 36-218, limits assumed, biotinylated)
T1 construct: Bought recombinant receptor; also called hFcγRIIa R131; FcgRIIa R131
T1 sequence (looked up): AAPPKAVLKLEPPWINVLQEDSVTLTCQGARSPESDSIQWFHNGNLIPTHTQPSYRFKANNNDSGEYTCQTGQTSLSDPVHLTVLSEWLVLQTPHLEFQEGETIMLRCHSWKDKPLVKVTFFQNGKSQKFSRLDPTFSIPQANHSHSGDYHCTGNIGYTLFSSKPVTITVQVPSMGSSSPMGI

T2: Human CD32b (FcγRIIb) (human, UniProt P31994 46-217, limits assumed, biotinylated)
T2 construct: Bought recombinant receptor; also called hFcγRIIb; CD32b (FcγR2b)
T2 sequence (looked up): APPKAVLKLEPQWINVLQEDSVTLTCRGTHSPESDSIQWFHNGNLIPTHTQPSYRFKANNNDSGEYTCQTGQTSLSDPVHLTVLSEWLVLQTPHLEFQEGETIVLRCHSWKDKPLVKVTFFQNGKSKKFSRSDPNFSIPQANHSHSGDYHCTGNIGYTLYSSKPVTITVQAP

T3: Human CD32a H131 (FcγRIIa H131) (human, UniProt P12318 36-218, limits assumed, biotinylated)
T3 construct: Bought recombinant receptor; also called hFcγRIIa H131; FcgRIIa H131
T3 sequence (looked up): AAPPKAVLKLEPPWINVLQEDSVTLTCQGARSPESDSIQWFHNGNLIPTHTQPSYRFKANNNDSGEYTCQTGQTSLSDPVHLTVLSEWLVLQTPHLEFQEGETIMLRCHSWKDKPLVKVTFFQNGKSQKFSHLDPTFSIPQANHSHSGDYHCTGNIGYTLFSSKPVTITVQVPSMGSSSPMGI

T4: Human CLEC12A-His (recombinant, K244 WT) (human, UniProt Q5QGZ9 65-265)
T4 construct: Made in house (Dragonfly Tx); also called hCLEC12A; hCLEC12A-His; not shown: His tag
T4 sequence: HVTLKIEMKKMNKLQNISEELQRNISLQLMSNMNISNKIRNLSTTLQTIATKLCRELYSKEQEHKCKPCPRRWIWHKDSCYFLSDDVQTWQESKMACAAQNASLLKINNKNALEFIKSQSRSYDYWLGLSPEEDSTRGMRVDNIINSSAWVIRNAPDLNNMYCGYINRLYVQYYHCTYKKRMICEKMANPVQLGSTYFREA

T5: Human CD32a H131 (human, UniProt P12318 36-218, limits assumed, biotinylated)
T5 construct: Bought recombinant receptor; also called hFcγRIIa H131
T5 sequence (looked up): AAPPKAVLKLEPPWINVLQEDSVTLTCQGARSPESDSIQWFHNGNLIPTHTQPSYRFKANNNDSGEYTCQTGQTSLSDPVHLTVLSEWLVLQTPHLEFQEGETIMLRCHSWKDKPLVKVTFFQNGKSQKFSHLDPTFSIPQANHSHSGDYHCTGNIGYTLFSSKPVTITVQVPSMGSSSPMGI

T6: Human CD32b (human, UniProt P31994 46-217, limits assumed, biotinylated)
T6 construct: Bought recombinant receptor; also called hFcγRIIb
T6 sequence (looked up): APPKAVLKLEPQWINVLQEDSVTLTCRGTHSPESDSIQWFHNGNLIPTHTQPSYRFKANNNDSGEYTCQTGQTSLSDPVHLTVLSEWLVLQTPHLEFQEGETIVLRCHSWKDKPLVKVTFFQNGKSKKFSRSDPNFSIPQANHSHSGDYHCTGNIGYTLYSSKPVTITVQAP


Legend:
[1] = biological target: T7, Human CD16a V158 (FcγRIIIa V158) (human, UniProt P08637 17-208, biotinylated); assay: SPR, summary of FcγR affinities
T7 construct: Bought recombinant receptor; also called hCD16aV; hFcγRIIIa V158
T7 sequence (P08637 17-208 F176V limits assumed): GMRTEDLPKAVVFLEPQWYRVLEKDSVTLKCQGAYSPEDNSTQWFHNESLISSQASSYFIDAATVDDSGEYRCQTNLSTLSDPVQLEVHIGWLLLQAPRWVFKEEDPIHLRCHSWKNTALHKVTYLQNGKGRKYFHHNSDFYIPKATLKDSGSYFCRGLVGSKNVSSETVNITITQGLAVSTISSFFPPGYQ
Procedure: (§1) Human and cynomolgus CD64, high and low affinity alleles of CD16a (V158 and F158, respectively), two alleles of CD32a (H131 and R131), CD16b, CD32b and cynomolgus CD16 were captured via biotin on a primed (according to the manufacturers instruction) Biacore chip. […] Due to irreversibility of streptavidin-biotin interaction, the capture step for all receptors except FcγRI (CD64) was performed just once prior to the start of the binding experiment. hCD64 and cyno CD64 capture on the CAP chip surface was performed during each cycle in accordance with the manufacturer's instructions for the Biotin CAPture kit.
(§2) Detailed description of each individual receptor binding is presented below.

[2] = biological target: T8, Human CD64 (FcγRI) (human, UniProt P12314 16-288, biotinylated); assay: SPR, summary of FcγR affinities
T8 construct: Bought recombinant receptor; also called hFcγRI; Human FcγRI
T8 sequence (P12314 16-288 limits assumed): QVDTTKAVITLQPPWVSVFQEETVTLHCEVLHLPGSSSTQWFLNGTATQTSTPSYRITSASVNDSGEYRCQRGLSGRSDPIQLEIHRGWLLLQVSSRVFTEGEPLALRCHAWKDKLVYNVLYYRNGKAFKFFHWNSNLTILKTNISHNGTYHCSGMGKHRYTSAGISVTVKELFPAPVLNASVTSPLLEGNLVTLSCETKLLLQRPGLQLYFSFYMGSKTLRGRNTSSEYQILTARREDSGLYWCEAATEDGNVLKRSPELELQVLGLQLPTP
Procedure: as §1, §2

[3] = biological target: T1, Human CD32a R131 (FcγRIIa R131); assay: SPR, summary of FcγR affinities
Procedure: as §1, §2

[4] = biological target: T2, Human CD32b (FcγRIIb); assay: SPR, summary of FcγR affinities
Procedure: as §1, §2

[5] = biological target: T3, Human CD32a H131 (FcγRIIa H131); assay: SPR, summary of FcγR affinities
Procedure: as §1, §2

[6] = biological target: T4, Human CLEC12A-His (recombinant, K244 WT); assay: SPR, untreated CLEC12A, two-state fit
Procedure: Briefly, human Fc specific antibodies were covalently immobilized at a density ˜8000-10000 resonance units (RU) on carboxy methyl dextran matrix of a CM5 biosensor chip via amine-coupling chemistry to create an anti-hFc IgG chip. […] Association was monitored for 300 seconds and dissociation was monitored for 600 seconds. Surfaces were regenerated between cycles with three pulses of 10 mM glycine-HCl, pH 1.7 injected for 20 seconds at 100 μl/min. HBS-EP+ (1×) with 0.1 mg/ml BSA was used as running buffer throughout the experiment. Experiments were performed at physiological temperature of 37° C. To obtain kinetic rate constants and overall binding affinity, double-referenced data were fit to a two-state kinetic model using Biacore 8K Insight Evaluation software (Cytiva).

[7] = biological target: T5, Human CD32a H131; assay: SPR, summary of FcγR affinities
[8] = biological target: T6, Human CD32b; assay: SPR, summary of FcγR affinities
[9] = biological target: T9, Cynomolgus CD64 (cynomolgus monkey, UniProt A0A2K5U901 33-309, Probably biotinylated for capture, as in the sister examples (p-1094).); assay: SPR, summary of FcγR affinities
T9 construct: Bought recombinant receptor; also called cFcγRI; Cynomolgus CD64 (FcγRI); not shown: The vendor's biotinylation and purification tag
T9 sequence (A0A2K5U901 entry or part of it limits assumed): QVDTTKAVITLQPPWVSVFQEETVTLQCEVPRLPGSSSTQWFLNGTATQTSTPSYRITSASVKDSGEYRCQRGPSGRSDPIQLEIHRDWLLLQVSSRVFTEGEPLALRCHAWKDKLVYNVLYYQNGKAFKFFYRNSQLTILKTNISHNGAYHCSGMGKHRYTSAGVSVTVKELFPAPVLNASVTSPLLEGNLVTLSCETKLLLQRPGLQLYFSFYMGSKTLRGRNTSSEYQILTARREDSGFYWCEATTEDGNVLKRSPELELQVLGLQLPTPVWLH

[10] = biological target: T10, Cynomolgus CD16 (cynomolgus monkey, UniProt Q8SPW2 17-208, biotinylated); assay: SPR, summary of FcγR affinities
T10 construct: Bought recombinant receptor; also called cFcγRIII; Cynomolgus FcγRIII
T10 sequence (Q8SPW2 17-208 limits assumed): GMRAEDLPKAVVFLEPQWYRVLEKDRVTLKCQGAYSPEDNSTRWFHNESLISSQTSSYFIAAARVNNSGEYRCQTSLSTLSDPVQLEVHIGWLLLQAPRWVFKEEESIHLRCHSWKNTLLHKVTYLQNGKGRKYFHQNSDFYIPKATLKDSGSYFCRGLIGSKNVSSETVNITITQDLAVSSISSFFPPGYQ

[11] = biological target: T11, Human CD16a V158 (human, UniProt P08637 17-208, biotinylated); assay: SPR, summary of FcγR affinities
T11 construct: Bought recombinant receptor; also called hCD16a (V158); hFcγRIIIa V158
T11 sequence (P08637 17-208 F176V limits assumed): as the sequence (P08637 17-208 F176V limits assumed) above

| Kd [1] [nM] | Kd [2] [nM] | Kd [3] [nM] | Kd [4] [nM] | Kd [5] [nM] | Kd [6] [nM] | Kd [7] [nM] | Kd [8] [nM] | Kd [9] [nM] | Kd [10] [nM] | Kd [11] [nM] | Binder |
| --- | --- | --- | --- | --- | --- | --- | --- | --- | --- | --- | --- |
| 333 | 5.1 | 1250 | 6270 | 900 | 0.6 |  |  |  |  |  | AB0089 TriNKET (bispecific antibody, human IgG1, kappa, F3' format heterodimer of three chains; human IgG1 Fc with EW-RVT and Y349C/S354C mutations; also called AB0089 Lot AB0089-002; CLEC12A TriNKET AB0089) QLQLQESGPGLVKPSETLSLTCTVSGFSLTNYGLHWIRQPPGKCLEWIGVIWVGGATDYNPSLKSRVTISVDTSKNQFSLKLSSVQAADTAVYYCAKGDYGDTLDYWGQGTLVTVSSGGGGSGGGGSGGGGSGGGGSDIQMTQSPSSLSASVGDRVTITCHASQNINFWLSWYQQKPGKAPKLLIYEASNLHTGVPSRFSGSGSGTDFTLTISSLQPEDFATYYCQQSHSYPLTFGCGTKLEIKGSDKTHTCPPCPAPELLGGPSVFLFPPKPKDTLMISRTPEVTCVVVDVSHEDPEVKFNWYVDGVEVHNAKTKPREEQYNSTYRVVSVLTVLHQDWLNGKEYKCKVSNKALPAPIEKTISKAKGQPREPRVYTLPPCRDELTKNQVSLTCLVKGFYPSDIAVEWESNGQPENNYKTTPPVLVSDGSFTLYSKLTVDKSRWQQGNVFSCSVMHEALHNHYTQKSLSLSPG heavy: EVQLVESGGGLVKPGGSLRLSCAASGFTFSSYSMNWVRQAPGKGLEWVSSISSSSSYIYYADSVKGRFTISRDNAKNSLYLQMNSLRAEDTAVYYCARGAPIGAAAGWFDPWGQGTLVTVSSASTKGPSVFPLAPSSKSTSGGTAALGCLVKDYFPEPVTVSWNSGALTSGVHTFPAVLQSSGLYSLSSVVTVPSSSLGTQTYICNVNHKPSNTKVDKKVEPKSCDKTHTCPPCPAPELLGGPSVFLFPPKPKDTLMISRTPEVTCVVVDVSHEDPEVKFNWYVDGVEVHNAKTKPREEQYNSTYRVVSVLTVLHQDWLNGKEYKCKVSNKALPAPIEKTISKAKGQPREPQVCTLPPSRDELTENQVSLTCLVKGFYPSDIAVEWESNGQPENNYKTTPPVLDSDGSFFLYSWLTVDKSRWQQGNVFSCSVMHEALHNHYTQKSLSLSPG light: DIQMTQSPSSVSASVGDRVTITCRASQGISSWLAWYQQKPGKAPKLLIYAASSLQSGVPSRFSGSGSGTDFTLTISSLQPEDFATYYCQQGVSFPRTFGGGTKVEIKRTVAAPSVFIFPPSDEQLKSGTASVVCLLNNFYPREAKVQWKVDNALQSGNSQESVTEQDSKDSTYSLSSTLTLSKADYEKHKVYACEVTHQGLSSPVTKSFNRGEC |
|  |  |  |  |  |  | 1010 | 6060 | 1.9 | 204 | 178 | AB0192 TriNKET (other, the condition stands under assay; also called AB0192 Lot AB0192-005) EVQLVESGGGVVQPGGSLRLSCAASGFTFNAFGMHWVRQAPGKCLEWVAFISSGSTSIYYANTVKGRFTISRDNSKNTLYLQMNSLRAEDTAVYYCARDGYPTGGAMDYWGQGTSVTVSSGGGGSGGGGSGGGGSGGGGSDIQMTQSPSSLSASVGDRVTITCKASQDIYNYLSWFQQKPGKAPKPLIYRANILVSGVPSRFSGSGSGQDYTFTISSLQPEDIATYYCLQFDAFPFTFGCGTKLEIKGSDKTHTCPPCPAPELLGGPSVFLFPPKPKDTLMISRTPEVTCVVVDVSHEDPEVKFNWYVDGVEVHNAKTKPREEQYNSTYRVVSVLTVLHQDWLNGKEYKCKVSNKALPAPIEKTISKAKGQPREPRVYTLPPCRDELTKNQVSLTCLVKGFYPSDIAVEWESNGQPENNYKTTPPVLVSDGSFTLYSKLTVDKSRWQQGNVFSCSVMHEALHNHYTQKSLSLSPG heavy: EVQLVESGGGLVKPGGSLRLSCAASGFTFSSYSMNWVRQAPGKGLEWVSSISSSSSYIYYADSVKGRFTISRDNAKNSLYLQMNSLRAEDTAVYYCARGAPIGAAAGWFDPWGQGTLVTVSSASTKGPSVFPLAPSSKSTSGGTAALGCLVKDYFPEPVTVSWNSGALTSGVHTFPAVLQSSGLYSLSSVVTVPSSSLGTQTYICNVNHKPSNTKVDKKVEPKSCDKTHTCPPCPAPELLGGPSVFLFPPKPKDTLMISRTPEVTCVVVDVSHEDPEVKFNWYVDGVEVHNAKTKPREEQYNSTYRVVSVLTVLHQDWLNGKEYKCKVSNKALPAPIEKTISKAKGQPREPQVCTLPPSRDELTENQVSLTCLVKGFYPSDIAVEWESNGQPENNYKTTPPVLDSDGSFFLYSWLTVDKSRWQQGNVFSCSVMHEALHNHYTQKSLSLSPG light: DIQMTQSPSSVSASVGDRVTITCRASQGISSWLAWYQQKPGKAPKLLIYAASSLQSGVPSRFSGSGSGTDFTLTISSLQPEDFATYYCQQGVSFPRTFGGGTKVEIKRTVAAPSVFIFPPSDEQLKSGTASVVCLLNNFYPREAKVQWKVDNALQSGNSQESVTEQDSKDSTYSLSSTLTLSKADYEKHKVYACEVTHQGLSSPVTKSFNRGEC |
